The values that follow come from publication PMC12004944.

This assay concerns the target N-terminal six-histidine-tagged PepV (H6-PepV) (S. aureus) (UniProt Q2FXH9). Briefly: pull-down; purified His-tagged bait (H6-PepV or SecA-H6) incubated 1 h at 4°C with cleared lysate of S. aureus RN4220 WT or Δspa, then Ni-NTA resin; immunoblot with αSecA and αPepV sera. On the technique in general: Immunoblotting shows a protein as a band on a membrane.
UniProt Q2FXH9, sequence (Q2FXH9 whole entry): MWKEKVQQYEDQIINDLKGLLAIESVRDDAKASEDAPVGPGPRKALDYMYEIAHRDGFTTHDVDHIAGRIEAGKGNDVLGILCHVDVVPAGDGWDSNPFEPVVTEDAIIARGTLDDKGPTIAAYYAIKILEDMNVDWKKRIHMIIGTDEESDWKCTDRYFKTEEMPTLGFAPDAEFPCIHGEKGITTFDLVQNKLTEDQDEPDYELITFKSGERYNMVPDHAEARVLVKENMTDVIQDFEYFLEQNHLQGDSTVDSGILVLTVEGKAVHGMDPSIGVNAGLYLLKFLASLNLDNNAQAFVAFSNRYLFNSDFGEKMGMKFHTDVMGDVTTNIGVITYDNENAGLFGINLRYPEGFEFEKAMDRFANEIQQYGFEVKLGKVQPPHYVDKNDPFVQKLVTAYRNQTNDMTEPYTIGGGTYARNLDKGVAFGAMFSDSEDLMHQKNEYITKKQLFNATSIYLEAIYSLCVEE

As for “SecA (endogenous, S. aureus RN4220) (from UniProt Q2YSH6 1-843) (natural protein)”, the SecA eluted from H6-PepV beads with Δspa lysate, percent less than with WT lysate is 30 % less.
